This passage reports IC50 results from publication PMC2710984.

pIC50: −log10 of the molar value. Bounds are passed on as bounds.

The assay has as its target GST–BIR3 fusion protein (XIAP BIR3 domain). As to the kind of experiment: FMAT bead-based fluorescence competition assay.

For orientation: pIC50 means −log10 of the IC50, conventionally taken in molar units. Read a low pIC50 as a large IC50. With “Smac N-terminal tripeptide AVP (compound 5)”, the pIC50 is below 5.00.
